Consider 4 molecules from patent US20020164609A1 (SCHERING, published 2002).

The target in test [1] is T1, Flag-tagged human WSX-1/TCCR on Ba/F3 cells (F-hWSX-1) (human, UniProt Q6UWB1 33-636).
T1 construct: Retroviral pMX construct expressed on the surface of Ba/F3 cells; also called hNR30; F-tagged WSX-1/TCCR
T1 sequence: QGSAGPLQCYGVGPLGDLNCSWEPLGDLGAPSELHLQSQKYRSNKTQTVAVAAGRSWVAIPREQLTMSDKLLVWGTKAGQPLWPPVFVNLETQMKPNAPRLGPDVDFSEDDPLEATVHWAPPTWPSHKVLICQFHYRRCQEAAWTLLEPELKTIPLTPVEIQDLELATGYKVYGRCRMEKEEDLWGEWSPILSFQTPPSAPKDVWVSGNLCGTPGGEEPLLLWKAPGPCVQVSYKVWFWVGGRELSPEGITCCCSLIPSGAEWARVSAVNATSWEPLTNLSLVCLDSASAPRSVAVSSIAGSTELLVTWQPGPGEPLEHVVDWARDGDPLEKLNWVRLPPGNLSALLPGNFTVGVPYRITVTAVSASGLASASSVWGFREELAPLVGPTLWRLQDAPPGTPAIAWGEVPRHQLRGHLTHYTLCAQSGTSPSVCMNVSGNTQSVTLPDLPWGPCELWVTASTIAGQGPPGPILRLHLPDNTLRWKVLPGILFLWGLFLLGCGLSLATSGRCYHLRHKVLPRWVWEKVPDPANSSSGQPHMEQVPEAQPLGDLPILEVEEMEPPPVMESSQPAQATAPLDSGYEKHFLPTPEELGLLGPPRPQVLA
In words: flow cytometry on BaF3 cells expressing F-hWSX-1, two hours incubation.

In test [2] the target is T2, soluble human WSX-1/TCCR with C-terminal RGSH6 tag (shWSX-1-R) (human, UniProt Q6UWB1 33-516).
T2 construct: Produced in HEK293T supernatants; also called shNR30R; soluble hWSX-1-R
T2 sequence: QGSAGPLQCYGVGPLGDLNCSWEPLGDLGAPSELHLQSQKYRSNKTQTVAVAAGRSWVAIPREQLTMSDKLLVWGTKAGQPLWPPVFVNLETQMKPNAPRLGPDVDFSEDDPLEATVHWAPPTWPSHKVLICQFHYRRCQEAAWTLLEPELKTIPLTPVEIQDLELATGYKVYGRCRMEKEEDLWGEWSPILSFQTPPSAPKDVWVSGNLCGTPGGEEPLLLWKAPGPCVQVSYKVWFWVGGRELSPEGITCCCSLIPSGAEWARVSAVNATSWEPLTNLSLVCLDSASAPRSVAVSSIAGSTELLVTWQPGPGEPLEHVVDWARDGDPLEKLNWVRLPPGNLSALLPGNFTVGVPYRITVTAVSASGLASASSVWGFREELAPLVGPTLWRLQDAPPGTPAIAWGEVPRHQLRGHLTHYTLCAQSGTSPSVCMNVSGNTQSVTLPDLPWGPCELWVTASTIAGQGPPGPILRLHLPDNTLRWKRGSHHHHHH
The experiment in a line: co-immunoprecipitation and western blot; F-hEBI3 alone against shWSX-1-R supernatant. The method, then:
The primary pricipitates were washed and then incubated with HEK293T cell supernatants containing shWSX-1-R. Secondary precipitates were separated by SDS-PAGE and subjected to western blot. Precipitaited proteins were visualized by ECL using antibodies against the respective protein tags.

The target of test [3] is T3, Flag-tagged mouse WSX-1 on BaF3 cells (F-mWSX-1) (mouse, UniProt O70394 25-623).
T3 construct: whole, on cells; Retroviral pMX construct expressed on the surface of Ba/F3 cells
T3 sequence (looked up): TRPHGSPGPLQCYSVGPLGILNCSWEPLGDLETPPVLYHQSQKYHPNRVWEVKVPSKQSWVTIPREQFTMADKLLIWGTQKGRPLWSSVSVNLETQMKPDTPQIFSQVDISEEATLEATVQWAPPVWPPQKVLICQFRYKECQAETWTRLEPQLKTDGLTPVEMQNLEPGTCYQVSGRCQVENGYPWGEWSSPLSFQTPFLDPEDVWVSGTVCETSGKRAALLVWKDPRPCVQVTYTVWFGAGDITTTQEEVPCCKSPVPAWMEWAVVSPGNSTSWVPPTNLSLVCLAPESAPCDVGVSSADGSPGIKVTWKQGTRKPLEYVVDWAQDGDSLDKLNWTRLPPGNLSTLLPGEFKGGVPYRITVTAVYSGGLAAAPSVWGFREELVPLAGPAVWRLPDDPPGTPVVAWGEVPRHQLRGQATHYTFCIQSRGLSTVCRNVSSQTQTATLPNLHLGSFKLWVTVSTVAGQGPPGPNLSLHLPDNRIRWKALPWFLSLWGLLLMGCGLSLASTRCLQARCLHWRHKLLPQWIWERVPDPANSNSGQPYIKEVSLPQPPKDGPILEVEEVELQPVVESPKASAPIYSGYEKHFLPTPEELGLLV
In words: flow cytometry on mWSX-1-expressing BaF3 cells. Background: A flow cytometer gives signals particle by particle.

B1: human EBI3-Ig fusion (hEBI3-Ig) (Fc fusion)
chain: RKGPPAALTLPRVQCRASRYPIAVDCSWTLPPAPNSTSPVSFIATYRLGMAARGHSWPCLQQTPTSTSCTITDVQLFSMAPYVLNVTAVHPWGSSSSFVPFITEHIIKPDPPEGVRLSPLAERHVQVQWEPPGSWPFPEIFSLKYWIRYKRQGAARFHRVGPIEATSFILRAVRPRARYYVQVAAQDLTDYGELSDWSLPATATMSLGK
notes: Secreted fusion protein; also called EB133-Ig (so in the source); not shown: Ig part from the pME18S-Ig vector
As for B1, in test [1], the binding result is recorded as “no binding”.

B2: Flag-tagged human EBI3 (F-hEBI3) (other)
chain: B1 chain
notes: Mature portion of human EBI3 cloned into pFlagCMV-1, produced in HEK293T cells; also called human Epstein-Barr virus-induced gene 3; not shown: N-terminal Flag tag from pFlagCMV-1
For B2, the binding result in test [2] was “no binding”.

B3: mouse EBI3-Ig fusion (mEBI3-Ig) (Fc fusion, UniProt O35228 19-228, looked up)
chain: YTETALVALSQPRVQCHASRYPVAVDCSWTPLQAPNSTRSTSFIATYRLGVATQQQSQPCLQRSPQASRCTIPDVHLFSTVPYMLNVTAVHPGGASSSLLAFVAERIIKPDPPEGVRLRTAGQRLQVLWHPPASWPFPDIFSLKYRLRYRRRGASHFRQVGPIEATTFTLRNSKPHAKYCIQVSAQDLTDYGKPSDWSLPGQVESAPHKP
notes: mature; Secreted fusion protein; not shown: Ig part from the pME18S-Ig vector
In the case of B3, the binding result in test [3] was “no binding”.

B4: E-tagged mouse IL-D80 (mIL-D80-E) (ligand)
chain: FPTDPLSLQELRREFTVSLYLARKLLSEVQGYVHSFAESRLPGVNLDLLPLGYHLPNVSLTFQAWHHLSDSERLCFLATTLRPFPAMLGGLGTQGTWTSSEREQLWAMRLDLRDLHRHLRFQVLAAGFKCSKEEEDKEEEEEEEEEEKKLPLGALGGPNQVSSQVSWPQLLYTYQLLHSLELVLSRAVRDLLLLSLPRRPGSAWDS
notes: also called mp28-E; mouse p28; not shown: E-tag from the pCDM8-etag vector
As for B4, the binding result in test [3] is “no binding”.
